# ± gives the standard deviation of the averaged measurements.
# System: ATP
# Experiment: switch fluorescence ratio, 500 uM ATP over buffer (Cy3 cluster intensity, sum of 5 cycles each) (fold (ratio)); higher = stronger signal-on switching upon ATP binding; sequences stand for … in TCGTCGGCAGCGTCAGATGTGTATAAGAGACAGTTTTTTTTTTTTTTTTTTTTTTTTT…TC
# Details: aptamer strand: ATP DNA aptamer (quencher-CACCTGGGGGAGTATTGCGGAGGAAGG + anchor), 100 nM annealed; ATP concentration: 500 uM
# Outline: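 Switching-strand clusters labelled with Cy3 on a modified Illumina MiSeq flow-cell were annealed to 100 nM quencher-labelled ATP aptamer, imaged in selection buffer, and re-imaged after 15 min with 500 uM ATP at 22 °C. This was done over five cycles with NaOH stripping and re-annealing in between. The fluorescence ratio is summed target-cycle over summed buffer-cycle Cy3 intensity per cluster, averaged per switch-domain sequence, excluding clusters outside 100-1000 RFU.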
# 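Also: ATP exposure 15 min at 22 °C before imaging.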
row,Sequence,switch fluorescence ratio
1,TTGGACGGTA,1.06 ± 0.1
2,TTGGACTCCG,1.14 ± 0.15
3,TTGGACTCTT,0.977 ± 0.038
4,TTGGAGAGGG,1.06 ± 0.058
5,TTGGAGATAT,1.07 ± 0.13
6,TTGGAGCACG,1.03 ± 0.049
7,TTGGAGGACA,1.06 ± 0.019
8,TTGGAGGCGT,0.9814 ± 0.0057
9,TTGGAGGGGC,1 ± 0.071
10,TTGGAGGTCG,1.03 ± 0.019
11,TTGGAGTCTG,0.994 ± 0.015
12,TTGGAGTTTG,1.02 ± 0.051
13,TTGGATAGCG,0.982 ± 0.017
14,TTGGATATTT,1 ± 0.015
15,TTGGATCGCA,0.985 ± 0.017
16,TTGGATGAAG,0.982 ± 0.022
17,TTGGATGACA,1.02 ± 0.031
18,TTGGATGTGA,0.9622 ± 0.0052
19,TTGGATTAGG,1.01 ± 0.024
20,TTGGATTGTT,1.04 ± 0.025
21,TTGGATTTAT,1.011 ± 0.0093
22,TTGGCACCCG,1.04 ± 0.034
23,TTGGCCGCAT,1.24 ± 0.09
24,TTGGCCGTAG,1.01 ± 0.028
25,TTGGCGAAGG,0.982 ± 0.045
26,TTGGCGCCGT,0.998 ± 0.044

row,Sequence,switch fluorescence ratio
1,TTGGCGCGGC,1.1 ± 0.063
2,TTGGCGCTGT,0.971 ± 0.0017
3,TTGGCGGGAT,1.03 ± 0.017
4,TTGGCGGTGG,1.08 ± 0.26
5,TTGGCGTCAA,1.36 ± 0.51
6,TTGGCTCGCA,1.11 ± 0.15
7,TTGGGAAAAT,1.01 ± 0.05
8,TTGGGAACGT,1 ± 0.11
9,TTGGGAAGCG,1.001 ± 0.0093
10,TTGGGACAAA,1.05 ± 0.061
11,TTGGGACGTC,1.02 ± 0.048
12,TTGGGACTTA,1.01 ± 0.03
13,TTGGGAGAAT,1.02 ± 0.09
14,TTGGGAGGTG,1.05 ± 0.051
15,TTGGGATACG,1.18 ± 0.23
16,TTGGGATTTT,1.01 ± 0.033
17,TTGGGCAGGG,0.982 ± 0.036
18,TTGGGCGGGG,1.03 ± 0.043
19,TTGGGCGGGT,0.994 ± 0.041
20,TTGGGCGGTG,1.01 ± 0.018
21,TTGGGCTATT,1.01 ± 0.015
22,TTGGGGAATA,1.05 ± 0.035
23,TTGGGGAGGA,0.998 ± 0.044
24,TTGGGGAGTA,0.9929 ± 0.0089
25,TTGGGGCACG,0.99 ± 0.02
26,TTGGGGCACT,0.985 ± 0.016

row,Sequence,switch fluorescence ratio
1,TTGGGGCGGA,0.9923 ± 0.0095
2,TTGGGGCGGT,1.05 ± 0.15
3,TTGGGGCGTG,0.971 ± 0.057
4,TTGGGGGCTA,1 ± 0.04
5,TTGGGGGTAG,1.04 ± 0.13
6,TTGGGGGTAT,1.05 ± 0.068
7,TTGGGGGTGG,1.01 ± 0.04
8,TTGGGGTCTG,1.02 ± 0.023
9,TTGGGGTGCG,0.995 ± 0.011
10,TTGGGGTGGC,0.965 ± 0.061
11,TTGGGGTGGT,0.993 ± 0.032
12,TTGGGGTGTC,1.01 ± 0.021
13,TTGGGGTTGT,1.03 ± 0.12
14,TTGGGGTTTT,1.01 ± 0.037
15,TTGGGTACGG,1.03 ± 0.016
16,TTGGGTAGGC,0.985 ± 0.022
17,TTGGGTCGAT,0.985 ± 0.024
18,TTGGGTCGGC,1.0032 ± 0.001
19,TTGGGTGCCT,0.999 ± 0.028
20,TTGGGTGCTT,1.02 ± 0.041
21,TTGGGTGGTG,0.983 ± 0.033
22,TTGGGTGGTT,0.9815 ± 0.0026
23,TTGGGTTGAG,0.999 ± 0.016
24,TTGGGTTGGG,0.987 ± 0.018
25,TTGGGTTTTG,0.994 ± 0.031
26,TTGGTAAAAA,1.25 ± 0.41

row,Sequence,switch fluorescence ratio
1,TTGGTAAAAG,1.02 ± 0.033
2,TTGGTAAAAT,0.978 ± 0.041
3,TTGGTAAAGG,0.999 ± 0.048
4,TTGGTATATT,1.02 ± 0.016
5,TTGGTCGCTG,1.01 ± 0.011
6,TTGGTCGTAC,1.03 ± 0.015
7,TTGGTCTGGG,1.01 ± 0.064
8,TTGGTGACCG,1.03 ± 0.036
9,TTGGTGAGAG,0.997 ± 0.019
10,TTGGTGCGGG,0.98 ± 0.044
11,TTGGTGGAAT,1.06 ± 0.093
12,TTGGTGGGGT,1 ± 0.033
13,TTGGTGGTT,0.9809 ± 0.0089
14,TTGGTGTGGG,0.986 ± 0.045
15,TTGGTTACAG,0.978 ± 0.031
16,TTGGTTAGTT,0.981 ± 0.027
17,TTGGTTCGC,0.994 ± 0.094
18,TTGGTTGGAC,1.028 ± 0.0092
19,TTGGTTGGCT,1.01 ± 0.018
20,TTGGTTGGTT,0.978 ± 0.019
21,TTGGTTGTTT,1 ± 0.052
22,TTGGTTTAAA,1 ± 0.022
23,TTGGTTTAGA,0.979 ± 0.028
24,TTGGTTTAGT,1.01 ± 0.025
25,TTGGTTTCGA,0.98 ± 0.013
26,TTGGTTTGGT,0.988 ± 0.03

row,Sequence,switch fluorescence ratio
1,TTGGTTTGTC,0.99 ± 0.037
2,TTGGTTTTCC,1.01 ± 0.028
3,TTGGTTTTCT,0.994 ± 0.045
4,TTGGTTTTTC,1.01 ± 0.025
5,TTGTAAATGC,1.26 ± 0.29
6,TTGTAACATT,1.015 ± 0.0014
7,TTGTAATTGC,1.29 ± 0.34
8,TTGTACCAAA,0.992 ± 0.047
9,TTGTAGACGT,1.02 ± 0.0093
10,TTGTAGGACC,1 ± 0.056
11,TTGTAGGAGC,0.965 ± 0.14
12,TTGTAGGGTT,1.02 ± 0.024
13,TTGTAGGTTT,1.58 ± 0.79
14,TTGTATAAGA,1.003 ± 0.0088
15,TTGTATATGC,1.16 ± 0.23
16,TTGTATGGGT,0.98 ± 0.019
17,TTGTATTGGA,0.995 ± 0.015
18,TTGTCCCTTT,0.9848 ± 0.0074
19,TTGTCCGCGG,1.06 ± 0.091
20,TTGTCGGGCC,0.964 ± 0.039
21,TTGTCGGTCT,0.972 ± 0.018
22,TTGTCTATGA,0.986 ± 0.028
23,TTGTCTTTTT,0.998 ± 0.015
24,TTGTGCAAAT,1.009 ± 0.006
25,TTGTGCTGGT,1 ± 0.033
26,TTGTGCTGTA,1.02 ± 0.013

row,Sequence,switch fluorescence ratio
1,TTGTGCTTAA,0.989 ± 0.052
2,TTGTGCTTGT,0.983 ± 0.019
3,TTGTGGAATG,1.015 ± 0.0094
4,TTGTGGCCAT,0.974 ± 0.022
5,TTGTGGCGTG,1 ± 0.034
6,TTGTGGGGCA,1.02 ± 0.021
7,TTGTGGGGTG,1.01 ± 0.044
8,TTGTGGTTTC,1.01 ± 0.017
9,TTGTGTAGGC,0.984 ± 0.025
10,TTGTGTCTTT,0.986 ± 0.017
11,TTGTGTGTAT,0.992 ± 0.017
12,TTGTGTTCTT,1.01 ± 0.026
13,TTGTGTTTAG,1.016 ± 0.0044
14,TTGTGTTTGG,0.992 ± 0.014
15,TTGTTAACTT,0.985 ± 0.017
16,TTGTTAGATG,1.011 ± 0.0066
17,TTGTTAGGAA,1.01 ± 0.02
18,TTGTTAGTT,1.02 ± 0.03
19,TTGTTATCCG,0.964 ± 0.048
20,TTGTTATGAT,1.01 ± 0.018
21,TTGTTATTCG,1.01 ± 0.087
22,TTGTTCCAGC,0.985 ± 0.047
23,TTGTTCCCGT,0.9839 ± 0.0013
